Measurements as given in PMC8932645.
No end group written: not given here. *: point of attachment. Palmitoyl = CCCCCCCCCCCCCCCC(=O)*

Legend:
[1] = target: Xenopus laevis PTCH1 (residues 1–1178) (Xenopus laevis); test: native gel or EMSA
[2] = target: GAS1 ectodomain (GAS1-Ecto), FLAG-HaloTag7-tagged (human) (UniProt P54826); test: ITC
Sequence of UniProt P54826 (P54826 40-317): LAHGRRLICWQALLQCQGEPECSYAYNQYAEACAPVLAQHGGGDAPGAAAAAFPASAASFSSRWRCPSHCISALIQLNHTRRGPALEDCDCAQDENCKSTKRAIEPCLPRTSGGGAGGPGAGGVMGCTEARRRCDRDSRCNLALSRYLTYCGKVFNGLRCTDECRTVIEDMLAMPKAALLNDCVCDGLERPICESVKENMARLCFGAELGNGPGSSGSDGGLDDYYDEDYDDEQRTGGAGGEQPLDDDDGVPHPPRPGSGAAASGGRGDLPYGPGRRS

Molecule | percent of SHH transferred from GAS1 to an equimolar amount of PTCH1 [1] | Kd [2]
dually lipidated Sonic hedgehog (SHH) (from UniProt Q15465 24-197) (ligand) | > 50% | –
octanoylated SHH effector peptide (EP) | – | 34.6 µM

The remaining lines, values ahead:

percent of SHH transferred from GAS1 to an equimolar amount of PTCH1 [1] | Kd [2] | Molecule
– | 3.84 µM | palmitoylated SHH effector peptide (EP, SHH residues 24–45)
– | 3.72 µM | Palmitoyl-SGPGRGFGK [truncated, palmitoylated SHH EP (9aa, residues 24–32)]
